{
  "source": "paper doi:10.1101/2025.05.15.654217",
  "molecular_target": "3×FLAG–SpaO^L-V5pBpa (Salmonella enterica serovar Typhimurium SL1344) (UniProt P40699)",
  "sequence (P40699 whole entry, looked up)": "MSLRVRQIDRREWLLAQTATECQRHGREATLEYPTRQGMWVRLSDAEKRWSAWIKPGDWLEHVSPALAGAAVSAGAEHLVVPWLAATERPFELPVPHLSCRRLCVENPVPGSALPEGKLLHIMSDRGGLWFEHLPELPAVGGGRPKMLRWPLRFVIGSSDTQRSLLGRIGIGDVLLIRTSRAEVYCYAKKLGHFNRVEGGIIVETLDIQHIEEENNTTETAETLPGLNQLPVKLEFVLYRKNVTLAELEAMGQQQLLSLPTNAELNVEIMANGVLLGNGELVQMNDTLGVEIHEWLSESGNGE",
  "experiment": "cross-linking",
  "data": [
    {"substance": "M45-SpaO^short F34pBpa (natural protein)", "values": [
      {"measurement": "stoichiometry N (SpaO^short per SpaO^L)", "result": 2}
    ]}
  ]
}
